Source: patent publication US20260210939A1, “MODIFIED OLFACTORY RECEPTORS” (GIVAUDAN SA, priority 2022, published 2026)
Where two headings read alike, the source gives them in different places.

Tests used:
OR2T4 = molecular target: T1, OR2T4 (Homo sapiens, UniProt Q8NH00, D328E/G331D/M330K); details: for % of the activation by the optimized sequence RNKEVKDALKRLLKRKCC: OR2T4 variant; for ligand identification in sulfur odorant screen: OR2T4 with optimized C-terminus SEQ ID NO: 86
T1 sequence (Q8NH00 with tags, fused parts or gaps D328E/M330K/G331D): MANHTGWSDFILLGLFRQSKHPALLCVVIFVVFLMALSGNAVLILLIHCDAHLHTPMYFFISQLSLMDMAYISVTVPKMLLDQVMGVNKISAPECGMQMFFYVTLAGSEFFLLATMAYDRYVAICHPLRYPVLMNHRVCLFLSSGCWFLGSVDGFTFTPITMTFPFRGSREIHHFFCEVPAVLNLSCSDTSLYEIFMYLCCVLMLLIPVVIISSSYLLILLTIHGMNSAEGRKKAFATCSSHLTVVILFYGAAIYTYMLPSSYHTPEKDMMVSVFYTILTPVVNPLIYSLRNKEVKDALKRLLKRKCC

OR7C1 = molecular target: T2, OR7C1 (Homo sapiens, UniProt O76099, D296E/G302K/M297V/R299D/T295K/V126I); test: CRE-luciferase assay, HEK293T cells expressing OR7C1 (wild-type / modified C-terminus); format: cell-based; details: OR7C1 variant, 1 μM Ambermax
T2 construct: Improved functional expression of modified OR-genes containing the truncated, optimized C-terminus; expressed in transfected cells; host or cells: HEK293T stably expressing human RTP1S(V227I) and RTP2(L220R)
T2 sequence (O76099 with tags, fused parts or gaps V126I/T295K/D296E/M297V/R299D/G302K): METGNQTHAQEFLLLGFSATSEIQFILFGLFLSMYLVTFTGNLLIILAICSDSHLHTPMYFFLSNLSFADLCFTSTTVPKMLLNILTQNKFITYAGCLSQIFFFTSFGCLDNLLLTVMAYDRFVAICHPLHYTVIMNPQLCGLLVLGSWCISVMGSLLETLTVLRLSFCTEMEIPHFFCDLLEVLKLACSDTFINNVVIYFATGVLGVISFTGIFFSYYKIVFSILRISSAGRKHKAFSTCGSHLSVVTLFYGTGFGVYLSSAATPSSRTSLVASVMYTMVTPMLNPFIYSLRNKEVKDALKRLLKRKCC
Description: To test for possible variants of the sequence […]CC (SEQ ID NO: 86) leading to similar improved functional expression, different point mutations were introduced into the first 16 amino acids of this sequence (corresponding to […], SEQ ID NO: 10) and the variants were fused after the TM7 with OR7C1. […] The test concentrations were selected to fall into the range of partial activity of the wild-type sequence.

OR5B12 = molecular target: T3, OR5B12 (Homo sapiens, UniProt Q96R08, C141R); test: CRE-luciferase assay, HEK293T cells expressing OR5B12 (wild-type / modified C-terminus); format: cell-based; details: OR5B12 variant
T3 construct: Improved functional expression of modified OR-genes containing the truncated, optimized C-terminus; expressed in transfected cells; host or cells: HEK293T stably expressing human RTP1S(V227I) and RTP2(L220R)
T3 sequence (Q96R08 with tags, fused parts or gaps C141R): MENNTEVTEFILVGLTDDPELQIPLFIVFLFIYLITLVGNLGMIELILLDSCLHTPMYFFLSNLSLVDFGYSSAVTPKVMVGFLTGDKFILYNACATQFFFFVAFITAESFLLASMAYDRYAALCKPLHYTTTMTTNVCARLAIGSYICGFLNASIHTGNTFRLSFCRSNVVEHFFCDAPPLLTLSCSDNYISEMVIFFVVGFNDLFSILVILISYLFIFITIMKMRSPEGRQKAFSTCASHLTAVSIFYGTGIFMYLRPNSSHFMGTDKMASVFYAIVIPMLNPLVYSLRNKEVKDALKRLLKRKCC

[1] = 4 μM 2-methyl-3-tetrahydrofuranethiol
[2] = 8 μM 2-methyl-3-tetrahydrofuranethiol
[3] = 10 μM Cyclopentanethiol, 30 μM copper
[4] = 31 μM Cyclopentanethiol, 30 μM copper

Compound	% of the activation by the optimized sequence RNKEVKDALKRLLKRKCC (OR2T4; [1]) [%]	% of the activation by the optimized sequence RNKEVKDALKRLLKRKCC (OR2T4; [2]) [%]	% of the activation by the optimized sequence RNKEVKDALKRLLKRKCC (OR7C1) [%]	% of the activation by the optimized sequence RNKEVKDALKRLLKRKCC (OR5B12; 31 μM Hedione HC) [%]	% of the activation by the optimized sequence RNKEVKDALKRLLKRKCC (OR5B12; 62.5 μM Hedione HC) [%]	% of the activation by the optimized sequence RNKEVKDALKRLLKRKCC (OR2T4; [3]) [%]	% of the activation by the optimized sequence RNKEVKDALKRLLKRKCC (OR2T4; [4]) [%]	ligand identification in sulfur odorant screen (OR2T4)
SEQ ID NO: 114 (RNKEVKRAIKRLLKRKCC; source 1..18: note = C-terminal domain sequence)	108.8	116.6	262.4	317.8	195.1	–	–	–
SEQ ID NO: 220 (RNKEVKKAIKRLLKRKCCRRR; source 1..21: note = C-terminal domain sequence)	76.6	61.9	–	1092.9	922.2	–	–	–
SEQ ID NO: 122 (RNKEVKKAIKRLLKRKCR; source 1..18: note = C-terminal domain sequence)	97.3	102.0	258.8	331.3	222.3	–	–	–
SEQ ID NO: 10 (RNKEVKDALKRLLKRK; source 1..16: note = C-terminal domain sequence)	–	–	89.5	0	0	25.3	25.2	–
CCCSSCCC [dipropyl disulfide, reference compound]	–	–	–	–	–	–	–	good ligands
SEQ ID NO: 198 (RNKEVKDALKRLLKRKC; source 1..17: note = C-terminal domain sequence)	–	–	137.7	0	0	37.7	63.5	–
SEQ ID NO: 115 (RNKEVKKAIKRLLKRKCC; source 1..18: note = C-terminal domain sequence)	103.1	115.2	–	349.2	242.5	–	–	–
SEQ ID NO: 149 (RNKEVKDALKRLLKRKCRRR; source 1..20: note = C-terminal domain sequence)	108.0	135.7	265.3	254.8	231.7	–	–	–
CC1OCCC1S (centres unmarked) [2-methyl-3-tetrahydrofuranthiol, reference compound]	–	–	–	–	–	–	–	good ligands
SEQ ID NO: 150 (RNKEVKDALKRLLKRKCRKK; source 1..20: note = C-terminal domain sequence)	94.8	96.5	196.0	182.3	145.7	–	–	–
SEQ ID NO: 118 (RNKEVKRAIRKLLKRKCC; source 1..18: note = C-terminal domain sequence)	80.6	98.4	288.9	126.2	136.1	–	–	–
SEQ ID NO: 121 (RNKEVKRAIKRLLKRKCR; source 1..18: note = C-terminal domain sequence)	139.9	150.6	346.4	342.8	242.1	–	–	–
SEQ ID NO: 133 (RNKEVKDALKRLLKRKCRR; source 1..19: note = C-terminal domain sequence)	101.4	110.0	188.9	–	–	–	–	–
SEQ ID NO: 142 (RNKEVKDALKRLLKRKCCH; source 1..19: note = C-terminal domain sequence)	–	–	–	142.62	129.19	–	–	–
SEQ ID NO: 147 (RNKEVKDALKRLLKRKCCG; source 1..19: note = C-terminal domain sequence)	–	–	–	394.57	300.08	–	–	–
SEQ ID NO: 145 (RNKEVKDALKRLLKRKCCK; source 1..19: note = C-terminal domain sequence)	–	–	–	280.71	237.30	–	–	–
SEQ ID NO: 221 (RNKEVKKAIKRLFKRKCCRRR; source 1..21: note = C-terminal domain sequence)	103.1	130.4	498.6	1032.2	676.0	–	–	–
SEQ ID NO: 219 (RNKEVKDALKRLLKRKCCRRRR; source 1..22: note = C-terminal domain sequence)	–	–	–	244.3	239.6	–	–	–
SEQ ID NO: 116 (RNKEVKRAIKRLFKRKCC; source 1..18: note = C-terminal domain sequence)	63.3	77.0	393.9	433.2	303.9	–	–	–
